Results reported in the supplement of paper PMC7877785.
± gives the uncertainty stated by the source.

Test: self-splicing fitness, log relative to wild type (ln ratio); higher = more splicing; Tetrahymena group I intron in knt gene, E. coli kanamycin selection, DiMSum; sequences stand for … in CUCUCU…GGAGGGAAAAGUUAUCAGGCAUGCACCUGGUAGCUAGUCUUUAAACCAAUAGAUUGCAUCGGUUUAAAAGGCAAGACCGUCAAAUUGCGGGAAAGGGGUCAACAGCCGUUCAGUACCAAGUCUCAGGGGAAACUUUGAGAUGGCCUUGCAAAGGGUAUGGUAAUAAGCUGACGGACAUGGUCCUAACCACGCAGCCAAGUCCUAAGUCAACAGAUCUUCUGUUGAUAUGGAUGCAGUUCACAGACUAAAUGUCGGUCGGGGAAGAUGUAUUCUUCUCAUAAGAUAUAGUCGGACCUCUCCUUAAUGGGAGCUAGCGGAUGAAGUGAUGCAACACUGGAGCCGCUGGGAACUAAUUUGUAUGCGAAAGUAUAUUGAUUAGUUUUGGAGUACUCGUGGUCG
Method in brief: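 The eight P1ex-region nucleotides of an intron in the knt kanamycin-resistance gene on pET-22b(+) were all randomised and the library put into E. coli BL21(DE3). Six replicate transformations were grown overnight at 37°C or 30°C on LB agar with or without 25 μg/mL kanamycin, together with 100 μg/mL carbenicillin, 50 μM IPTG and 0.2% rhamnose. Colonies were pooled and amplicon-sequenced on an Illumina HiSeq 2500. Fitness from DiMSum is the error-weighted combination of wild-type-normalised replicate fold changes, kanamycin over none.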

For UUUCAGCAAUAUUACGGUUC, the “self-splicing fitness (ln)” value (30 °C) was -1.67 ± 0.17 and the “self-splicing fitness (ln)” value (37 °C) was -1.82 ± 0.27.

For UUUCAGCAAUAUUACGUGAU, the “self-splicing fitness (ln)” value (30 °C) was -2.58 ± 0.13 and the “self-splicing fitness (ln)” value (37 °C) was -1.8 ± 0.18.

In the case of UUUCAGCAAUAUUACGUGGA, the “self-splicing fitness (ln)” value (30 °C) is reported as -3.32 ± 0.22 and the “self-splicing fitness (ln)” value (37 °C) is reported as -2.3 ± 0.35.

For UUUCAGCAAUAUUACGUUAU, the “self-splicing fitness (ln)” value (30 °C) was -2.94 ± 0.2 and the “self-splicing fitness (ln)” value (37 °C) was -1.47 ± 0.14.

In the case of UUUCAGCAAUAUUACGUUGC, the “self-splicing fitness (ln)” value (30 °C) is reported as -4.04 ± 0.29 and the “self-splicing fitness (ln)” value (37 °C) is reported as -2.5 ± 0.24.

For UUUGAGCAAUAUUACGACAA, the “self-splicing fitness (ln)” value (30 °C) was -1.26 ± 0.16 and the “self-splicing fitness (ln)” value (37 °C) was -0.94 ± 0.17.

For UUUGAGCAAUAUUACGACCU, the “self-splicing fitness (ln)” value (30 °C) was -2.7 ± 0.26 and the “self-splicing fitness (ln)” value (37 °C) was -1.02 ± 0.34.

With UUUGAGCAAUAUUACGAGUG the “self-splicing fitness (ln)” value (30 °C) was -3.74 ± 0.18 and the “self-splicing fitness (ln)” value (37 °C) was -2.88 ± 0.2.

For UUUGAGCAAUAUUACGAUGC, the “self-splicing fitness (ln)” value (37 °C) was -1.81 ± 0.4.

In the case of UUUGAGCAAUAUUACGCAUC, the “self-splicing fitness (ln)” value (30 °C) is reported as -3.03 ± 0.28 and the “self-splicing fitness (ln)” value (37 °C) is reported as -2.39 ± 0.38.

In the case of UUUGAGCAAUAUUACGCCAG, the “self-splicing fitness (ln)” value (30 °C) is reported as -2.78 ± 0.36 and the “self-splicing fitness (ln)” value (37 °C) is reported as -2.12 ± 0.47.

With UUUGAGCAAUAUUACGCGGA the “self-splicing fitness (ln)” value (30 °C) was -3.43 ± 0.35 and the “self-splicing fitness (ln)” value (37 °C) was -1.28 ± 0.17.

For UUUGAGCAAUAUUACGGAGA, the “self-splicing fitness (ln)” value (37 °C) was 1.09 ± 0.29.

In the case of UUUGAGCAAUAUUACGGAGG, the “self-splicing fitness (ln)” value (30 °C) is reported as -3.18 ± 0.32 and the “self-splicing fitness (ln)” value (37 °C) is reported as -2.33 ± 0.46.

With UUUGAGCAAUAUUACGGCGU the “self-splicing fitness (ln)” value (30 °C) was -3.7 ± 0.26 and the “self-splicing fitness (ln)” value (37 °C) was -1.9 ± 0.2.

In the case of UUUGAGCAAUAUUACGGGAC, the “self-splicing fitness (ln)” value (30 °C) is reported as -3.43 ± 0.34 and the “self-splicing fitness (ln)” value (37 °C) is reported as -2.12 ± 0.27.

For UUUGAGCAAUAUUACGGGGG, the “self-splicing fitness (ln)” value (30 °C) was -1.96 ± 0.38.

With UUUGAGCAAUAUUACGGGUA the “self-splicing fitness (ln)” value (30 °C) was -2.8 ± 0.46.

In the case of UUUGAGCAAUAUUACGGGUG, the “self-splicing fitness (ln)” value (30 °C) is reported as -4.1 ± 0.3 and the “self-splicing fitness (ln)” value (37 °C) is reported as -2.22 ± 0.21.

With UUUGAGCAAUAUUACGUAGA the “self-splicing fitness (ln)” value (30 °C) was -1.7 ± 0.22 and the “self-splicing fitness (ln)” value (37 °C) was -0.802 ± 0.24.

For UUUGAGCAAUAUUACGUCCC, the “self-splicing fitness (ln)” value (30 °C) was -2.9 ± 0.22 and the “self-splicing fitness (ln)” value (37 °C) was -2.15 ± 0.33.

For UUUGAGCAAUAUUACGUCUC, the “self-splicing fitness (ln)” value (30 °C) was -3.52 ± 0.29 and the “self-splicing fitness (ln)” value (37 °C) was -2.7 ± 0.33.

With UUUGAGCAAUAUUACGUGAG the “self-splicing fitness (ln)” value (30 °C) was -1.35 ± 0.11 and the “self-splicing fitness (ln)” value (37 °C) was 0.29 ± 0.14.

For UUUGAGCAAUAUUACGUGCG, the “self-splicing fitness (ln)” value (37 °C) was -1.29 ± 0.25.

With UUUGAGCAAUAUUACGUGUA the “self-splicing fitness (ln)” value (30 °C) was -3.76 ± 0.35 and the “self-splicing fitness (ln)” value (37 °C) was -2.78 ± 0.28.

With UUUGAGCAAUAUUACGUUGC the “self-splicing fitness (ln)” value (30 °C) was -2.68 ± 0.34 and the “self-splicing fitness (ln)” value (37 °C) was -2.29 ± 0.36.

For UUUUAGCAAUAUUACGAAAC, the “self-splicing fitness (ln)” value (37 °C) was -2.4 ± 0.49.

With UUUUAGCAAUAUUACGAACA the “self-splicing fitness (ln)” value (37 °C) was -0.949 ± 0.48.

With UUUUAGCAAUAUUACGAAUG the “self-splicing fitness (ln)” value (30 °C) was -1.04 ± 0.077 and the “self-splicing fitness (ln)” value (37 °C) was -0.0853 ± 0.096.

In the case of UUUUAGCAAUAUUACGACCU, the “self-splicing fitness (ln)” value (37 °C) is reported as -1.36 ± 0.44.

In the case of UUUUAGCAAUAUUACGACGC, the “self-splicing fitness (ln)” value (30 °C) is reported as -2.17 ± 0.31 and the “self-splicing fitness (ln)” value (37 °C) is reported as -1.56 ± 0.28.

With UUUUAGCAAUAUUACGAGAU the “self-splicing fitness (ln)” value (37 °C) was -1.25 ± 0.4.

For UUUUAGCAAUAUUACGAUGA, the “self-splicing fitness (ln)” value (30 °C) was 0.0426 ± 0.16 and the “self-splicing fitness (ln)” value (37 °C) was -0.186 ± 0.2.

In the case of UUUUAGCAAUAUUACGAUGG, the “self-splicing fitness (ln)” value (30 °C) is reported as -1.32 ± 0.19 and the “self-splicing fitness (ln)” value (37 °C) is reported as -1.22 ± 0.2.

With UUUUAGCAAUAUUACGCAAG the “self-splicing fitness (ln)” value (30 °C) was -1.08 ± 0.15 and the “self-splicing fitness (ln)” value (37 °C) was -1.14 ± 0.21.

For UUUUAGCAAUAUUACGCCCU, the “self-splicing fitness (ln)” value (30 °C) was -2.16 ± 0.35 and the “self-splicing fitness (ln)” value (37 °C) was -0.426 ± 0.28.

With UUUUAGCAAUAUUACGGGUU the “self-splicing fitness (ln)” value (37 °C) was -2.26 ± 0.29.

With UUUUAGCAAUAUUACGGUGU the “self-splicing fitness (ln)” value (30 °C) was -3.34 ± 0.38.

With UUUUAGCAAUAUUACGGUUG the “self-splicing fitness (ln)” value (30 °C) was -1.77 ± 0.15 and the “self-splicing fitness (ln)” value (37 °C) was -0.623 ± 0.23.

In the case of UUUUAGCAAUAUUACGUACU, the “self-splicing fitness (ln)” value (37 °C) is reported as 0.399 ± 0.37.

In the case of UUUUAGCAAUAUUACGUGUA, the “self-splicing fitness (ln)” value (30 °C) is reported as -2.96 ± 0.27 and the “self-splicing fitness (ln)” value (37 °C) is reported as -1.84 ± 0.17.
